In US20030166850A1 (Pfizer, published 2003):
Each block holds one binder with its values, some of them ahead of it.

Experiments:
[1] = target: T1, proline rich domain of RGS9-2, amino acids 460-672 of human RGS9 (bait, plasmid pAS1-RGS9CT) (human, UniProt O75916 463-674); test: yeast two-hybrid screen of a human fetal brain library
T1 sequence: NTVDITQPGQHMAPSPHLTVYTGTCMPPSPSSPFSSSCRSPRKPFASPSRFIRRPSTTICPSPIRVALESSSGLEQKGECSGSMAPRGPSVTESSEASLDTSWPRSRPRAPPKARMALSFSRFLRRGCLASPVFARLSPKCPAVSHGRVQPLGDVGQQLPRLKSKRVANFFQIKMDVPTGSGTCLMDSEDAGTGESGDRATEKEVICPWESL
Excerpt: (§1) To identify interactors of the proline rich domain of RGS9, amino acids 460-672 of human RGS9 (FIG. 1A), was used as “bait” to screen a pretransformed human fetal brain library (Clontech). The RGS9-2 cDNA used was cloned by PCR from a human brain cDNA library using the primers 5′ primer: […], 3′ primer: […]. The DNA encoding amino acids 460-672 of RGS9-2, was amplified by PCR using the primer sequences 5′ […] and 3′ […] and ligated into the NdeI and BamH 1 sites of pAS1 (Clontech). The pAS1-RGS9CT plasmid was used to transform the yeast strain PJ69-2A (Clontech) using lithium acetate. The library was screened using a yeast mating protocol by incubating the library (MATα) with the bait strain ([…]) overnight at 30° C. according to the manufacturer's protocols. The mating mixture was plated on SD/-His/-Leu/-Trp and incubated at 30° C. until colonies appeared. Colonies were picked and miniprep DNA prepared. The insert in the library plasmid was amplified using the LD-Insert Screening amplimer set of primers (Clontech) and the amplicon sequenced on an ABI 3700 capillary sequencer. The sequences obtained were used as queries against the GENBANK database using BLAST. The 6 most common hits were selected for further study and were replated on SD/-His/-Leu/-Trp containing 0-40 mM […]. […]

[2] = target: T1, proline rich domain of RGS9-2, amino …; test: yeast two-hybrid assay
Excerpt: as §1

binding result [1]: binds
B1: evectin clone discovered in the yeast two-hybrid screen (amino acids 101-190) (other)
chain: KTALLEANSTPVRVYSPYQDYYEVVPPNAHEATYVRSYYGPPYAGPGVTHVIVREDPCYSAGAPLAMGMLAGAATGAALGSLMWSPCWF
notes: Prey clone from the pretransformed human fetal brain library (Clontech); also called latter half of the evectin protein

binding result [2]: binds
B2: EVT ΔC54 (C terminal deletion mutant of evectin) (other)
chain: MALVRGGWLWRQSSILRRWKRNWFALWLDGTLGYYHDETAQDEEDRVLIHFNVRDIKIGPECHDVQPPEGRSRDGLLTVNLREGGRLHLCAETKDDALAWKTALLEANSTPVRVYSPYQDYYEVVPPNAHEATYVR
